According to article PMC10786891, “Massively parallel profiling of RNA-targeting CRISPR-Cas13d”:

T1: EsCas13d, nuclease-dead (Eubacterium siraeum, UniProt B0MS50, R295A;H300A;R849A;H854A)
T1 sequence: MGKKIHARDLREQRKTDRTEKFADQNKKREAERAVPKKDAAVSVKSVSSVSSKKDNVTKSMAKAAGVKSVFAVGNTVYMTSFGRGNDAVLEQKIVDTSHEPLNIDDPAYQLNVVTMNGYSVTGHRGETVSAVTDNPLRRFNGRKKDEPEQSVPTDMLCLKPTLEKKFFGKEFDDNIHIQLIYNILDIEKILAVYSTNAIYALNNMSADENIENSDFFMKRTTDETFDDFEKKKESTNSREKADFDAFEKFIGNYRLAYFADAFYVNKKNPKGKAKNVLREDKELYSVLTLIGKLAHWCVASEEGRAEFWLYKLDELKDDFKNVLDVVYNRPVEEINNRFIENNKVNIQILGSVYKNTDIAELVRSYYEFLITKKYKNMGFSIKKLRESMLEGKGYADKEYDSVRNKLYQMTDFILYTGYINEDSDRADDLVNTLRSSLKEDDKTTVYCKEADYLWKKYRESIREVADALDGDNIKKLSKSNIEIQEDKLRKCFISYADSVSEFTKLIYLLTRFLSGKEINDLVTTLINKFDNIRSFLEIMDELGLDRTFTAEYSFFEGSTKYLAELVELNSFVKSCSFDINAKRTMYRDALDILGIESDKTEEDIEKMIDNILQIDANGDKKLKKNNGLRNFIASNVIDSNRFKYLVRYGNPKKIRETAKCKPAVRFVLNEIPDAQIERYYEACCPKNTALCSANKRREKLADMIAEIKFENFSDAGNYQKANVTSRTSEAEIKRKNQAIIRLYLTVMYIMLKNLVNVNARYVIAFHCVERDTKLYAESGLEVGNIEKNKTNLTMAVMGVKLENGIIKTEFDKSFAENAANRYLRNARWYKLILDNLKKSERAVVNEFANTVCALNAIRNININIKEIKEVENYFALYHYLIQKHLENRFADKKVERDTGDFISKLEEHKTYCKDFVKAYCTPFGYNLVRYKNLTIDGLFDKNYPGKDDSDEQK


The binders below were run against T1, EsCas13d, nuclease-dead (assay: crRNA (strand 1, pre-loaded); Mg2+; 40 mM Tris-HCl pH 7.5, 150 mM NaCl, 6 mM MgCl2, 1 mM DTT, 0.1% Tween-20, 0.2 mg/ml BSA; 25 C; 10 min per concentration, then washed). Conditions: tags: His6-TwinStrep-SUMO cleaved; N-terminal SNAP kept (SNAP-Surface 488); label: 3' end held by stalled T7 RNA polymerase.

| Binder | Kd [nM] |
| --- | --- |
| target 3 insU 3' of 22,insG 3' of 5 (mixed) RNA 1: CACCCGUGCAAAAUUGCAGGGGUCUAAAACGACCUGAAUAUUUCAGAUCAAA RNA 2: GGGAAUGGAUCCACAUCUACGAAUUCGUUUUUUGAUCUGAAAUAUUCAGGGUCUGCAGAUCGGAAGAGCACACGU | 17.4 ± 1.7 |
| target 3 insA 3' of 22,insA 3' of 3 (mixed) RNA 1: CACCCGUGCAAAAUUGCAGGGGUCUAAAACGACCUGAAUAUUUCAGAUCAAA RNA 2: GGGAAUGGAUCCACAUCUACGAAUUCGUUUAUUGAUCUGAAAUAUUCAGGAUCUGCAGAUCGGAAGAGCACACGU | 22.2 ± 4.4 |
| target 3 A5G,U8C (mixed) RNA 1: CACCCGUGCAAAAUUGCAGGGGUCUAAAACGACCUGAAUAUUUCAGAUCAAA RNA 2: GGGAAUGGAUCCACAUCUACGAAUUCGUUUUUGAUCUGAAAUACUCGGGUCUGCAGAUCGGAAGAGCACACGU | 86.5 ± 13 |
| target 3 insU 3' of 5,insC 3' of 4 (mixed) RNA 1: CACCCGUGCAAAAUUGCAGGGGUCUAAAACGACCUGAAUAUUUCAGAUCAAA RNA 2: GGGAAUGGAUCCACAUCUACGAAUUCGUUUUUGAUCUGAAAUAUUCAUGCGUCUGCAGAUCGGAAGAGCACACGU | 6.45 ± 0.65 |
| target 3 insA 3' of 15,insC 3' of 2 (mixed) RNA 1: CACCCGUGCAAAAUUGCAGGGGUCUAAAACGACCUGAAUAUUUCAGAUCAAA RNA 2: GGGAAUGGAUCCACAUCUACGAAUUCGUUUUUGAUCUAGAAAUAUUCAGGUCCUGCAGAUCGGAAGAGCACACGU | ~82 |
| target 3 C6U,U22C (mixed) RNA 1: CACCCGUGCAAAAUUGCAGGGGUCUAAAACGACCUGAAUAUUUCAGAUCAAA RNA 2: GGGAAUGGAUCCACAUCUACGAAUUCGUUCUUGAUCUGAAAUAUUUAGGUCUGCAGAUCGGAAGAGCACACGU | 14.5 ± 1.85 |
| target 3 insC 3' of 11,insG 3' of 5 (mixed) RNA 1: CACCCGUGCAAAAUUGCAGGGGUCUAAAACGACCUGAAUAUUUCAGAUCAAA RNA 2: GGGAAUGGAUCCACAUCUACGAAUUCGUUUUUGAUCUGAAACUAUUCAGGGUCUGCAGAUCGGAAGAGCACACGU | 86.5 ± 29 |
| target 3 C1A,U10G (mixed) RNA 1: CACCCGUGCAAAAUUGCAGGGGUCUAAAACGACCUGAAUAUUUCAGAUCAAA RNA 2: GGGAAUGGAUCCACAUCUACGAAUUCGUUUUUGAUCUGAAAGAUUCAGGUAUGCAGAUCGGAAGAGCACACGU | ~90.5 |
| target 3 insC 3' of 11,insC 3' of 2 (mixed) RNA 1: CACCCGUGCAAAAUUGCAGGGGUCUAAAACGACCUGAAUAUUUCAGAUCAAA RNA 2: GGGAAUGGAUCCACAUCUACGAAUUCGUUUUUGAUCUGAAACUAUUCAGGUCCUGCAGAUCGGAAGAGCACACGU | 67 ± 10 |
| target 3 C1G,U2C (mixed) RNA 1: CACCCGUGCAAAAUUGCAGGGGUCUAAAACGACCUGAAUAUUUCAGAUCAAA RNA 2: GGGAAUGGAUCCACAUCUACGAAUUCGUUUUUGAUCUGAAAUAUUCAGGCGUGCAGAUCGGAAGAGCACACGU | 17.1 ± 3.8 |
| target 3 U2G,C6G (mixed) RNA 1: CACCCGUGCAAAAUUGCAGGGGUCUAAAACGACCUGAAUAUUUCAGAUCAAA RNA 2: GGGAAUGGAUCCACAUCUACGAAUUCGUUUUUGAUCUGAAAUAUUGAGGGCUGCAGAUCGGAAGAGCACACGU | 21.8 ± 2.7 |
| target 3 G3C,U22A (mixed) RNA 1: CACCCGUGCAAAAUUGCAGGGGUCUAAAACGACCUGAAUAUUUCAGAUCAAA RNA 2: GGGAAUGGAUCCACAUCUACGAAUUCGUUAUUGAUCUGAAAUAUUCAGCUCUGCAGAUCGGAAGAGCACACGU | 16.5 ± 1.4 |
| target 3 A5G,U21A (mixed) RNA 1: CACCCGUGCAAAAUUGCAGGGGUCUAAAACGACCUGAAUAUUUCAGAUCAAA RNA 2: GGGAAUGGAUCCACAUCUACGAAUUCGUUUAUGAUCUGAAAUAUUCGGGUCUGCAGAUCGGAAGAGCACACGU | 98 ± 44.5 |
| target 3 insA 3' of 7,insU 3' of 6 (mixed) RNA 1: CACCCGUGCAAAAUUGCAGGGGUCUAAAACGACCUGAAUAUUUCAGAUCAAA RNA 2: GGGAAUGGAUCCACAUCUACGAAUUCGUUUUUGAUCUGAAAUAUUACUAGGUCUGCAGAUCGGAAGAGCACACGU | 17.9 ± 1.2 |
| target 3 insA 3' of 21,insA 3' of 3 (mixed) RNA 1: CACCCGUGCAAAAUUGCAGGGGUCUAAAACGACCUGAAUAUUUCAGAUCAAA RNA 2: GGGAAUGGAUCCACAUCUACGAAUUCGUUUUAUGAUCUGAAAUAUUCAGGAUCUGCAGAUCGGAAGAGCACACGU | ~69 |
| target 3 insC 3' of 9,insU 3' of 6 (mixed) RNA 1: CACCCGUGCAAAAUUGCAGGGGUCUAAAACGACCUGAAUAUUUCAGAUCAAA RNA 2: GGGAAUGGAUCCACAUCUACGAAUUCGUUUUUGAUCUGAAAUACUUCUAGGUCUGCAGAUCGGAAGAGCACACGU | 82 ± 14.5 |
| target 3 insA 3' of 3,insA 3' of 3 (mixed) RNA 1: CACCCGUGCAAAAUUGCAGGGGUCUAAAACGACCUGAAUAUUUCAGAUCAAA RNA 2: GGGAAUGGAUCCACAUCUACGAAUUCGUUUUUGAUCUGAAAUAUUCAGGAAUCUGCAGAUCGGAAGAGCACACGU | 15.5 ± 1.65 |
| target 3 insU 3' of 4,insC 3' of 3 (mixed) RNA 1: CACCCGUGCAAAAUUGCAGGGGUCUAAAACGACCUGAAUAUUUCAGAUCAAA RNA 2: GGGAAUGGAUCCACAUCUACGAAUUCGUUUUUGAUCUGAAAUAUUCAGUGCUCUGCAGAUCGGAAGAGCACACGU | 17.4 ± 1.7 |
| target 3 insC 3' of 8,insU 3' of 3 (mixed) RNA 1: CACCCGUGCAAAAUUGCAGGGGUCUAAAACGACCUGAAUAUUUCAGAUCAAA RNA 2: GGGAAUGGAUCCACAUCUACGAAUUCGUUUUUGAUCUGAAAUAUCUCAGGUUCUGCAGAUCGGAAGAGCACACGU | 59 ± 25.5 |
| target 3 U2A,A12C (mixed) RNA 1: CACCCGUGCAAAAUUGCAGGGGUCUAAAACGACCUGAAUAUUUCAGAUCAAA RNA 2: GGGAAUGGAUCCACAUCUACGAAUUCGUUUUUGAUCUGACAUAUUCAGGACUGCAGAUCGGAAGAGCACACGU | 33 ± 5.5 |
| target 3 U2A,U21C (mixed) RNA 1: CACCCGUGCAAAAUUGCAGGGGUCUAAAACGACCUGAAUAUUUCAGAUCAAA RNA 2: GGGAAUGGAUCCACAUCUACGAAUUCGUUUCUGAUCUGAAAUAUUCAGGACUGCAGAUCGGAAGAGCACACGU | 39.5 ± 11 |
| target 3 insC 3' of 22,insC 3' of 4 (mixed) RNA 1: CACCCGUGCAAAAUUGCAGGGGUCUAAAACGACCUGAAUAUUUCAGAUCAAA RNA 2: GGGAAUGGAUCCACAUCUACGAAUUCGUUUCUUGAUCUGAAAUAUUCAGCGUCUGCAGAUCGGAAGAGCACACGU | 39 ± 12 |
| target 3 insA 3' of 2,insA 3' of 2 (mixed) RNA 1: CACCCGUGCAAAAUUGCAGGGGUCUAAAACGACCUGAAUAUUUCAGAUCAAA RNA 2: GGGAAUGGAUCCACAUCUACGAAUUCGUUUUUGAUCUGAAAUAUUCAGGUAACUGCAGAUCGGAAGAGCACACGU | 30.4 ± 3.8 |
| target 3 A5U,U22A (mixed) RNA 1: CACCCGUGCAAAAUUGCAGGGGUCUAAAACGACCUGAAUAUUUCAGAUCAAA RNA 2: GGGAAUGGAUCCACAUCUACGAAUUCGUUAUUGAUCUGAAAUAUUCUGGUCUGCAGAUCGGAAGAGCACACGU | 48 ± 10 |
| target 3 insU 3' of 11,insU 3' of 4 (mixed) RNA 1: CACCCGUGCAAAAUUGCAGGGGUCUAAAACGACCUGAAUAUUUCAGAUCAAA RNA 2: GGGAAUGGAUCCACAUCUACGAAUUCGUUUUUGAUCUGAAAUUAUUCAGUGUCUGCAGAUCGGAAGAGCACACGU | 23.6 ± 4.15 |
| target 1 insG 3' of 9,insA 3' of 4 (mixed) RNA 1: CACCCGUGCAAAAAUGCAGGGGUCUAAAACUGAGCGGAUAACCUCUCUAUGG RNA 2: GGGAAUGGAUCCACAUCUACGAAUUCGUACCAUAGAGAGGUUAGUCCGCAUCACCGAGAUCGGAAGAGCACACGU | 9.6 ± 1 |
| target 1 U3A,U8G (mixed) RNA 1: CACCCGUGCAAAAAUGCAGGGGUCUAAAACUGAGCGGAUAACCUCUCUAUGG RNA 2: GGGAAUGGAUCCACAUCUACGAAUUCGUACCAUAGAGAGGUUAGCCGCACACCGAGAUCGGAAGAGCACACGU | 11.9 ± 0.5 |
| target 1 insU 3' of 21,insG 3' of 1 (mixed) RNA 1: CACCCGUGCAAAAAUGCAGGGGUCUAAAACUGAGCGGAUAACCUCUCUAUGG RNA 2: GGGAAUGGAUCCACAUCUACGAAUUCGUACCUAUAGAGAGGUUAUCCGCUCAGCCGAGAUCGGAAGAGCACACGU | 24.9 ± 2.3 |
